Results reported in paper PMC3438747, “Role of Motif III in Catalysis by Acetyl-CoA Synthetase” (Archaea, 2012).

Assays:
[1] = target: Methanothermobacter thermautotrophicus Acs1 (AMP-forming acetyl-CoA synthetase), unaltered (Methanothermobacter thermautotrophicus); assay: SEC; Superose 12 gel filtration column, 50 mM Tris pH 7.5 with 150 mM KCl, calibrated with mass standards; subunit composition (dimer)
[2] = target: Acs1Mt Asp502Glu variant (Methanothermobacter thermautotrophicus); assay: as above
[3] = target: Acs1Mt Tyr498Ala variant (Methanothermobacter thermautotrophicus); assay: as above
[4] = target: Acs1Mt Asp502Asn variant (Methanothermobacter thermautotrophicus); assay: as above
[5] = target: Acs1Mt Gly501Ala variant (Methanothermobacter thermautotrophicus); assay: as above
[6] = target: Acs1Mt Tyr498Phe variant (Methanothermobacter thermautotrophicus); assay: as above
Acs1Mt = target: T1, Acs1Mt (Methanothermobacter thermautotrophicus, UniProt Q2XNL6); assay: hydroxamate assay, reciprocal plot of velocity vs inhibitor; assay type: biochemical; settings: all three substrates (acetate, MgATP, CoA) saturating; pH 7.5; 65 °C
T1 construct: gene acs1; recombinant in E. coli Rosetta Blue (DE3); Q-sepharose and phenyl sepharose purification; dimer; motif III 498-YTAGD-502

[7] = target: Acs1Mt Asp502Ala variant (Methanothermobacter thermautotrophicus); assay: SEC; Superose 12 gel filtration column, 50 mM Tris pH 7.5 with 150 mM KCl, calibrated with mass standards; subunit composition (dimer)
[8] = target: T2, acetyl-CoA synthetase (Acs1Mt) (Methanothermobacter thermautotrophicus, UniProt O26319); assay: inhibition of purified enzyme, hydroxamate assay; assay type: biochemical
T2 construct: gene MTH_217
T2 sequence (O26319 1-558): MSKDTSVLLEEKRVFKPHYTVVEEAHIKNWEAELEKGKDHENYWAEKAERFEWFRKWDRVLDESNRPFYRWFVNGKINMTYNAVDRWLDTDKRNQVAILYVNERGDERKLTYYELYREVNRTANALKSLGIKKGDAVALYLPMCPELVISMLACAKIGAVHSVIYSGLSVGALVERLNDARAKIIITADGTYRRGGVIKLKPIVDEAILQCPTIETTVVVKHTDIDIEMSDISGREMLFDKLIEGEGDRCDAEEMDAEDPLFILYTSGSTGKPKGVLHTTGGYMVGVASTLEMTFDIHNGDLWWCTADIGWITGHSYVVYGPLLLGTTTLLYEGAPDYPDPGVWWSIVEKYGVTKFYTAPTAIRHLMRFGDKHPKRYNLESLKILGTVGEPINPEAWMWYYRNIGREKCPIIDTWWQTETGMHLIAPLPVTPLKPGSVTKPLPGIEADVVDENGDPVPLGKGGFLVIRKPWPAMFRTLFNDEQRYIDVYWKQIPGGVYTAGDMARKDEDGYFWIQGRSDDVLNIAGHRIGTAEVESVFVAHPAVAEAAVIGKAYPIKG

[9] = target: Acs1Mt Thr499Ala variant (Methanothermobacter thermautotrophicus); assay: SEC; Superose 12 gel filtration column, 50 mM Tris pH 7.5 with 150 mM KCl, calibrated with mass standards; subunit composition (dimer)
[10] = target: Acs1Mt Ala500Thr variant (Methanothermobacter thermautotrophicus); assay: as above
purified protein = substrate: CC(=O)O; assay: purified protein; settings: Mg2+
[11] = substrate: CC(C)(COP(=O)(O)OP(=O)(O)OC[C@H]1O[C@@H](n2cnc3c(N)ncnc32)[C@H](O)[C@@H]1OP(=O)(O)O)[C@@H](O)C(=O)NCCC(=O)NCCS; assay: Michaelis-Menten kinetics of purified recombinant enzyme, hydroxamate assay (Km); assay type: biochemical, Methanothermobacter thermautotrophicus; settings: Mg2+
[12] = substrate: Nc1ncnc2c1ncn2[C@@H]1O[C@H](COP(=O)(O)OP(=O)(O)OP(=O)(O)O)[C@@H](O)[C@H]1O; assay: as above; assay type: biochemical, Methanothermobacter thermautotrophicus; settings: Mg2+ active site; Asp502 interacts with the OH groups of the ribose moiety (model)

T1 sequence (Q2XNL6 1-634): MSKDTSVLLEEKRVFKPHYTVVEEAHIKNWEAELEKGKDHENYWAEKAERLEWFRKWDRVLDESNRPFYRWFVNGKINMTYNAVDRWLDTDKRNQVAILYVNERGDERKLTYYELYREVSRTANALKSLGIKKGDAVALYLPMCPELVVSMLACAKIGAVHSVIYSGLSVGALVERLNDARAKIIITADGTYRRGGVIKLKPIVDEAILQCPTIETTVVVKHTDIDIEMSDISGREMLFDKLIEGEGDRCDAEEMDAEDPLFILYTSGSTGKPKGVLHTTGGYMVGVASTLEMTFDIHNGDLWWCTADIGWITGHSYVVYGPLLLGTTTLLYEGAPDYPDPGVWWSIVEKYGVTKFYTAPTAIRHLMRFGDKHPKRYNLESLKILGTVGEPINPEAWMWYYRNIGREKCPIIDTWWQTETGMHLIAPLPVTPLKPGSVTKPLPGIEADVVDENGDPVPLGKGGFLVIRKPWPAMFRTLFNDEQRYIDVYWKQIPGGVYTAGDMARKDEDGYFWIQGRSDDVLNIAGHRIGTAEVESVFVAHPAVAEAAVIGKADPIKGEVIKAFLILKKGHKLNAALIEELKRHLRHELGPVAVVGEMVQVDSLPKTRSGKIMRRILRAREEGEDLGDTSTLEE

Molecule: Methanothermobacter thermautotrophicus Acs1 (AMP-forming acetyl-CoA synthetase), unaltered (enzyme)
- stoichiometry N [1]: 2

Molecule: Acs1Mt Asp502Glu variant (enzyme)
- stoichiometry N [2]: 2

Molecule: Acs1Mt Tyr498Ala variant (enzyme)
- stoichiometry N [3]: 2

Molecule: Acs1Mt Asp502Asn variant (enzyme)
- stoichiometry N [4]: 2

Molecule: Acs1Mt Gly501Ala variant (enzyme)
- stoichiometry N [5]: 2

Molecule: Acs1Mt Tyr498Phe variant (enzyme)
- stoichiometry N [6]: 2

Molecule: OC1OC[C@@H](O)[C@@H](O)[C@H]1O (some centres unmarked) [ribose]
- Ki (Acs1Mt): 53 mM

Molecule: Acs1Mt Asp502Ala variant (enzyme)
- stoichiometry N [7]: 2

Molecule: O=C[C@H](O)[C@H](O)[C@H](O)CO [ribose]
- Ki [8]: 53 mM

Molecule: Acs1Mt Thr499Ala variant (enzyme)
- stoichiometry N [9]: 2

Molecule: Acs1Mt Ala500Thr variant (enzyme)
- stoichiometry N [10]: 2

B1: acetyl-CoA synthetase (Acs1Mt) (Methanothermobacter thermautotrophicus str. Delta H) (protein)
chain: MSKDTSVLLEEKRVFKPHYTVVEEAHIKNWEAELEKGKDHENYWAEKAERFEWFRKWDRVLDESNRPFYRWFVNGKINMTYNAVDRWLDTDKRNQVAILYVNERGDERKLTYYELYREVNRTANALKSLGIKKGDAVALYLPMCPELVISMLACAKIGAVHSVIYSGLSVGALVERLNDARAKIIITADGTYRRGGVIKLKPIVDEAILQCPTIETTVVVKHTDIDIEMSDISGREMLFDKLIEGEGDRCDAEEMDAEDPLFILYTSGSTGKPKGVLHTTGGYMVGVASTLEMTFDIHNGDLWWCTADIGWITGHSYVVYGPLLLGTTTLLYEGAPDYPDPGVWWSIVEKYGVTKFYTAPTAIRHLMRFGDKHPKRYNLESLKILGTVGEPINPEAWMWYYRNIGREKCPIIDTWWQTETGMHLIAPLPVTPLKPGSVTKPLPGIEADVVDENGDPVPLGKGGFLVIRKPWPAMFRTLFNDEQRYIDVYWKQIPGGVYTAGDMARKDEDGYFWIQGRSDDVLNIAGHRIGTAEVESVFVAHPAVAEAAVIGKAYPIKG
- Km (purified protein): 3.5 ± 0.1 mM
- Km [11]: 0.19 ± 0.003 mM
- Km [12]: 3.3 ± 0.2 mM
